Substrate: CC(C)C[C@H](NC(=O)[C@H](Cc1cnc[nH]1)NC(=O)CNC(=O)c1ccccc1)C(=O)O
Assay: purified protein, by the assay type
Assay type: biochemical
Conditions: other: substrate hippuryl-His-Leu, human urinary ACE, pH 8.0
Source text: The role of ACE in the pathogenesis of hypertension has prompted a search for inhibitors of the enzyme that could act as antihypertensive drugs. See for example U.S. Pat. Nos. 3,891,616, 3,947,575, 4,052,511 and 4,053,651. […]. No. 4,046,889 to Ondetti et al., issued Sept. 6, 1977, and in scientific articles by Cushman, D. W. et al., Biochemistry 16, 5484 (1977), and by Ondetti, M. et al., Science 196, 441 (1977). […]. These factors include the source of enzyme, its purity, the substrate used and its concentration, and the composition of the assay buffer. All I50 data reported herein have been performed with the same assay system and same enzyme (human urinary ACE) and with an approximately 1/2 Km level of substrate and are therefore internally consistent. Discrepancies with data obtained by other workers may be observed. Indeed such discrepancies do exist in the literature, for unknown reasons. See, for example, the I50 values for BPP9a reported by Cushman, D. W., et al., Experientia 29, 1032 (1973) and by Dorer, F. E., et al., Biochim. Biophys. Acta 429, 220 (1976).
The inhibitory potency of N^α -[3-(L-α-glutamylthio)-2-D-methyl-propanoyl]-L-proline in vitro was measured in the following assay. […] The enzyme was assayed in 0.05M Hepes buffer, pH 8.0 containing 0.1M NaCl and 0.75M Na2 SO4. […]

B1: Human urinary ACE (Homo sapiens) (protein)
chain: LDPGLQPGNFSADEAGAQLFAQSYNSSAEQVLFQSVAASWAHDTNITAENARRQEEAALLSQEFAEAWGQKAKELYEPIWQNFTDPQLRRIIGAVRTLGSANLPLAKRQQYNALLSNMSRIYSTAKVCLPNKTATCWSLDPDLTNILASSRSYAMLLFAWEGWHNAAGIPLKPLYEDFTALSNEAYKQDGFTDTGAYWRSWYNSPTFEDDLEHLYQQLEPLYLNLHAFVRRALHRRYGDRYINLRGPIPAHLLGDMWAQSWENIYDMVVPFPDKPNLDVTSTMLQQGWNATHMFRVAEEFFTSLELSPMPPEFWEGSMLEKPADGREVVCHASAWDFYNRKDFRIKQCTRVTMDQLSTVHHEMGHIQYYLQYKDLPVSLRRGANPGFHEAIGDVLALSVSTPEHLHKIGLLDRVTNDTESDINYLLKMALEKIAFLPFGYLVDQWRWGVFSGRTPPSRYNFDWWYLRTKYQGICPPVTRNETHFDAGAKFHVPNVTPYIRYFVSFVLQFQFHEALCKEAGYEGPLHQCDIYRSTKAGAKLRKVLQAGSSRPWQEVLKDMVGLDALDAQPLLKYFQPVTQWLQEQNQQNGEVLGWPEYQWHPPLPDNYPEGIDLVTDEAEASKFVEEYDRTSQVVWNEYAEANWNYNTNITTETSKILLQKNMQIANHTLKYGTQARKFDVNQLQNTTIKRIIKKVQDLERAALPAQELEEYNKILLDMETTYSVATVCHPNGSCLQLEPDLTNVMATSRKYEDLLWAWEGWRDKAGRAILQFYPKYVELINQAARLNGYVDAGDSWRSMYETPSLEQDLERLFQELQPLYLNLHAYVRRALHRHYGAQHINLEGPIPAHLLGNMWAQTWSNIYDLVVPFPSAPSMDTTEAMLKQGWTPRRMFKEADDFFTSLGLLPVPPEFWNKSMLEKPTDGREVVCHASAWDFYNGKDFRIKQCTTVNLEDLVVAHHEMGHIQYFMQYKDLPVALREGANPGFHEAIGDVLALSVSTPKHLHSLNLLSSEGGSDEHDINFLMKMALDKIAFIPFSYLVDQWRWRVFDGSITKENYNQEWWSLRLKYQGLCPPVPRTQGDFDPGAKFHIPSSVPYIRYFVSFIIQFQFHEALCQAAGHTGPLHKCDIYQSKEAGQRLATAMKLGFSRPWPEAMQLITGQPNMSASAMLSYFKPLLDWLRTENELHGEKLGWPQYNWTPNSAR
notes: from tissue; host or cells: human urine
Question: How did the Km turn out when B1 was run?
Answer: 200 µM

Reference: US4734420A, “Anti-hypertensive agents” (priority 1980, dated 1988)
